Measured values as given in patent US20150225472A1.

Biological target: Light chain of BDD-Factor VIII (FVIII: C light chain) expressed in Pichia pastoris GS115 (Homo sapiens (Human)) (UniProt P00451)
Experiment: cell-based or functional assay

Sequence of Light chain of BDD-Factor VIII (FVIII: C light chain) expressed in Pichia pastoris GS115 (Homo sapiens (Human)) (P00451 other isoform, or with tags, fused parts or gaps limits assumed): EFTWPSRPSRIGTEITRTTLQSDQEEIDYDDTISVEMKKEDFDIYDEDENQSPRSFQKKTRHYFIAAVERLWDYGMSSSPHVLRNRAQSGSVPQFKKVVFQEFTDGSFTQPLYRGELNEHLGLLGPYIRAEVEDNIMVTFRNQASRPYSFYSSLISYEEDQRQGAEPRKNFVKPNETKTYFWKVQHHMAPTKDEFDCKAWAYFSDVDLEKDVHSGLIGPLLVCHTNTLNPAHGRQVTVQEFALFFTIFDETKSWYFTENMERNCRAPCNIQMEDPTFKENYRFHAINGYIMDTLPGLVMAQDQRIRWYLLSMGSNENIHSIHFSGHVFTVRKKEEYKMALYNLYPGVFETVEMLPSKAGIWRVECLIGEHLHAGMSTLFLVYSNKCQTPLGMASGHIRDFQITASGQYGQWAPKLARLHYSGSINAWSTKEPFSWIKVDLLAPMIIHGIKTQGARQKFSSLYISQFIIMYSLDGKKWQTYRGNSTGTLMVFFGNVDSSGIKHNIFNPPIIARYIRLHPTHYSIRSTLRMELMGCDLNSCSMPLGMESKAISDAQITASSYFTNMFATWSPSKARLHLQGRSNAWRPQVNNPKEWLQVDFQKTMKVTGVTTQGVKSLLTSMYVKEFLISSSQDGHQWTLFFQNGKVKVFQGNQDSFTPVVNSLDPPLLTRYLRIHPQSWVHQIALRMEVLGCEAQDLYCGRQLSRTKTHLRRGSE

Specific Activity[IU/mg], chromogenic assay: 7660 IU/mg | Specific Activity[IU/mg], one stage clotting assay: 132 IU/mg
Substance: Heavy chain of BDD-Factor VIII (FVIII: C heavy chain, A1 and A2 domains) expressed in Pichia pastoris GS115 (from UniProt P00451 20-759)
